From US20080267948A1, “Croos-B Structure Binding Compounds” (priority 2005, published 2008)

B1: Recombinant β2GPI: recombinant human β2-glycoprotein I made using insect cells (protein, UniProt P02749 20-345, looked up)
Beta-2-glycoprotein 1: GRTCPKPDDLPFSTVVPLKTFYEPGEEITYSCKPGYVSRGGMRKFICPLTGLWPINTLKCTPRVCPFAGILENGAVRYTTFEYPNTISFSCNTGFYLNGADSAKCTEEGKWSPELPVCAPIICPPPSIPTFATLRVYKPSAGNNSLYRDTAVFECLPQHAMFGNDTITCTTHGNWTKLPECREVKCPFPSRPDNGFVNYPAKPTLYYKDKATFGCHDGYSLDGPEEIECTKLGNWSAMPSCKASCKVPVKKATVVYQGERVKIQEKFKNGMLHGDKVSFFCKNKEKKCSYTEDAQCIDGTIEVPKCFKEHSSLAFWKTDASDVKPC
modifications: recombinant, insect cells

Tests used:
[1] = biological target: T1, glycated albumin (BSA-AGE) (Bos taurus, UniProt P02769); experiment: ELISA binding of recombinant human BiP to BSA-AGE, with or without tPA or K2P-tPA; parameters: species or system bovine; conditions: cell culture supernatant of HEK 293E cells
T1 construct: purchased Sigma-Aldrich A-7906
T1 sequence (P02769 25-607): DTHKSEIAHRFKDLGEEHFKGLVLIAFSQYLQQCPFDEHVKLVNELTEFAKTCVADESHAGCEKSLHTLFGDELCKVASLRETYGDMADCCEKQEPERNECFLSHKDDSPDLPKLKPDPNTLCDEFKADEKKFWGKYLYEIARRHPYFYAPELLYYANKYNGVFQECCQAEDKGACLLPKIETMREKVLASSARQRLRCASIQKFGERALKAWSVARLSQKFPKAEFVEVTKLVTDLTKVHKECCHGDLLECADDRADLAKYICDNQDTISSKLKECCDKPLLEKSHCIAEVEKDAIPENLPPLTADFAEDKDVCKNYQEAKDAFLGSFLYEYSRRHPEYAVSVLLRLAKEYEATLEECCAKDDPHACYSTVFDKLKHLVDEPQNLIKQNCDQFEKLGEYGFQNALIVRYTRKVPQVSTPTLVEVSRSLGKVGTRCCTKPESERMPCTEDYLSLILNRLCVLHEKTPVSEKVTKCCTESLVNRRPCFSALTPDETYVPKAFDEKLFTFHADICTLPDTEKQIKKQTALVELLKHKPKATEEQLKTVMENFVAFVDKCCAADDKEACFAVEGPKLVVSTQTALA
Description: Proteins at 5 μg/ml were coated for 1 h at room temperature with agitation, in Microlon high-binding ELISA plates (Greiner) in 50 mM NaHCO3 pH 9.6. Buffer was coated as negative control. A twofold dilutions series of cell culture supernatant of HEK 293E cells over-expressing BiP was also coated to the plate for anti-FLAG-tag antibody control purposes. Plates were washed and blocked with ½*Blocking reagent (Roche). Undiluted cell culture supernatant enriched with 0.1% Tween20 was added to the wells with immobilized protein ligands and incubated for 1 h at room temperature with agitation. Medium was discarded and the plate was washed with PBS with 0.1% v/v Tween20. Mouse monoclonal anti-FLAG-tag antibody (Sigma, A8592, anti-FLAG M2PO conjugate) was diluted 1000× in PBS/0.1% Tween20 and added to all wells, including those that are coated with cell culture supernatant. After a 1 h incubation at room temperature with agitation and after washing, wells were overlayed with 3000× diluted RAMPO (DAKOCytomation) in PBS/0.1% Tween20. […] Absorbance was read at 450 nm.
Hb-AGE, Hb, BSA-AGE, BSA and buffer were coated. The threefold diluted cell supernatants were applied to the ELISA plate in duplicates and BiP binding was subsequently measured as described above. […]

[2] = biological target: T2, glycated haemoglobin (Hb-AGE) (Homo sapiens, UniProt P68871+P69905); experiment: ELISA binding of recombinant human BiP to Hb-AGE, with or without tPA or K2P-tPA; conditions: cell culture supernatant of HEK 293E cells
T2 construct: purchased Sigma-Aldrich H7379
T2 sequence (P69905 2-142 limits assumed): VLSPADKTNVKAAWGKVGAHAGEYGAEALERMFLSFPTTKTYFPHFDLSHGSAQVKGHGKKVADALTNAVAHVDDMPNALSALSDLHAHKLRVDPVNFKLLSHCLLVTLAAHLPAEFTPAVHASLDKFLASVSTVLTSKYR
T2 sequence (P68871 2-147 limits assumed): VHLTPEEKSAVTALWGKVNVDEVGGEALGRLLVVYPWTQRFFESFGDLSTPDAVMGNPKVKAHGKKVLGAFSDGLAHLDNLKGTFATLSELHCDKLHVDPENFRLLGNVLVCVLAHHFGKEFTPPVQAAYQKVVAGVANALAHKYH
Description: Absorbance was read at 450 nm.
The threefold diluted cell supernatants were applied to the ELISA plate in duplicates and BiP binding was subsequently measured as described above. Coat efficiency was checked with specific anti-AGE antibody, anti-albumin antibody and anti-Hb antibody.

tPA [3] = biological target: T3, tPA (Homo sapiens, UniProt P00750); experiment: Plasminogen activation assay (tPA-mediated conversion of Plg to plasmin); assay type: biochemical; parameters: purchased Boehringer-Ingelheim Actilyse; conditions: 100 μg ml^−1 protein or peptide, 400 pM tPA, substrate S-2251
T3 sequence (P00750 36-562): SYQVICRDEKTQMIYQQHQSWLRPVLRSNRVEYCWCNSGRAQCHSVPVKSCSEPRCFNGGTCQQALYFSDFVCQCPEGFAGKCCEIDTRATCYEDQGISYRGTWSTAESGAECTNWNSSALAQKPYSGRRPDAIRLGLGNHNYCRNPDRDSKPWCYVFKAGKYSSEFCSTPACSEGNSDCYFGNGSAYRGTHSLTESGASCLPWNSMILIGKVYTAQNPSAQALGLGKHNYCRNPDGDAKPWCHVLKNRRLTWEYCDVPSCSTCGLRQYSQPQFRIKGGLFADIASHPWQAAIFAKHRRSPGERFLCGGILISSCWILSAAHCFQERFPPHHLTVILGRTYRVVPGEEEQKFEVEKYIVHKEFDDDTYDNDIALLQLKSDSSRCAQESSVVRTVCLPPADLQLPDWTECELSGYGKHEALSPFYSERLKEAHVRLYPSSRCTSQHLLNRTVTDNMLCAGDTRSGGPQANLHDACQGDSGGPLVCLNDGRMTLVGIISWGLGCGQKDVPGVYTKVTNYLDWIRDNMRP
Description: Plasmin (Plm) activity was assayed as described^4. Peptides and proteins that were tested for their stimulatory ability were used at 100 μg ml^−1, unless stated otherwise. […] Chromogenic substrate S-2251 (Chromogenix, Instrumentation Laboratory SpA, Milano, Italy) was used to measure Pls activity.
Purification of β2-glycoprotein I (β2GPI) was performed according to established methods^15,16. Recombinant human β2GPI was made using insect cells and purified as described^15. Plasma derived β2GPI as used in a factor XII ELISA, the Plg-activation assay and in the anti-phospholipid syndrome antibody ELISA (see below), was purified from fresh human plasma as described^16. […]
Solutions of fibrin peptide FP6, NH2—IDIKIR-COOH (Peptide facility, Dutch Cancer Institute, Amsterdam, the Netherlands) were prepared in various ways. […] Separate samples were prepared similarly and analyzed by electron spray ionization mass spectrometry (ESI-MS) to obtain information on the distribution of the peptide over putatively present oligomers (Dr C. Versluis, Department of Biomolecular Mass Spectrometry, Bijvoet Center for Biomolecular Research, Utrecht University, Utrecht, The Netherlands). […] Micrographs were recorded at 80 kV, at suitable magnifications on a JEM-1200EX electron microscope (JEOL, Japan).

tPA [4] = biological target: T3, tPA; experiment: ELISA binding of β2GPI to immobilized tPA; conditions: tPA immobilized
Description: (§1) Binding of β2GPI was assessed with monoclonal antibody 2B2^17.

factor XII = biological target: T4, factor XII (Homo sapiens, UniProt P00748); experiment: ELISA binding of β2GPI to immobilized factor XII; parameters: human factor XII from plasma (Calbiochem); purchased Calbiochem; host or cells: human plasma; conditions: factor XII immobilized
T4 sequence (P00748 20-615): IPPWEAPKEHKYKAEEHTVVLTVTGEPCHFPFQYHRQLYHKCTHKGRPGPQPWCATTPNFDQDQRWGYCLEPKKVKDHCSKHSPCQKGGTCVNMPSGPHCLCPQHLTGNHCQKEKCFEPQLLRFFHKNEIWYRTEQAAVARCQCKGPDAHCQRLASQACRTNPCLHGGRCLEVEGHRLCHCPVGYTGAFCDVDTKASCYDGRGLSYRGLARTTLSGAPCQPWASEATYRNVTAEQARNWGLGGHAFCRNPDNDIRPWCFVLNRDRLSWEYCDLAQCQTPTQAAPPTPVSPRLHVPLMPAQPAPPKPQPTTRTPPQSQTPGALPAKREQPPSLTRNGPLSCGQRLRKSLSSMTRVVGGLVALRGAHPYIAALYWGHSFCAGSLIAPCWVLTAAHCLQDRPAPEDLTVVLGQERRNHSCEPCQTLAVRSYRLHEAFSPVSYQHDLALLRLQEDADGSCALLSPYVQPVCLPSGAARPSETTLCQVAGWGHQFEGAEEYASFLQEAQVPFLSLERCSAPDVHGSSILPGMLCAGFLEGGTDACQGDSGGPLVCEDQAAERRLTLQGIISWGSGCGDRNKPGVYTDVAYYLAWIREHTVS
Description: as §1

[5] = test system: anti-β2GPI auto-antibodies from antiphospholipid syndrome patients; experiment: Interference with binding of anti-β2GPI autoantibodies to immobilized β2GPI; parameters: species or system human; conditions: concentration series of β2GPI in solution
Description: β2GPI by recombinant β2GPI and not by plasma derived β2GPI When plasma derived β2GPI is coated onto hydrophilic ELISA plates, anti-β2GPI auto-antibodies isolated from plasma of antiphospholipid syndrome autoimmune patients can bind^18. To study the influence of coincubations of the coated β2GPI with the antibodies together with plasma β2GPI or recombinant β2GPI, concentration series of β2GPI were added to the patient antibodies. Subsequently, binding of the antibodies to coated β2GPI was determined.

Row | Molecule | BiP binding to BSA-AGE and native BSA [1] | BiP binding to Hb-AGE and native haemoglobin [2] | stimulation of tPA-mediated conversion of Plg to plasmin (tPA [3]) | kD of binding to tPA (tPA [4]) | kD of binding to factor XII (factor XII) | inhibition of binding of anti-β2GPI auto-antibodies to immobilized β2GPI [5]
1 | BiP: recombinant human BiP with carboxy-terminal linker, FLAG-tag and His-tag, expressed in HEK 293E cells | binds to glycated albumin (BSA-AGE) and not to native BSA | binds to glycated haemoglobin (Hb-AGE) and to a lesser extent to coated native haemoglobin | – | – | – | –
2 | B1 | – | – | stimulate tPA-mediated conversion of Plg to plasmin | 2.3 µg/mL | 0.9 µg/mL | efficiently inhibits binding of anti-β2GPI auto-antibodies to immobilized β2GPI
